Earlier results, collected in article PMC3267162.
Like-named read-outs stand apart in the source and are kept apart here.

Tests used:
[1] = biological target: LRP (Homo sapiens) (UniProt Q07954)
[2] = biological target: PTPzeta (Homo sapiens) (UniProt P23471)
[3] = biological target: PTPzeta (Homo sapiens) (UniProt P23471); remark: listed apart in the source

UniProt P23471, sequence (P23471 25-1636): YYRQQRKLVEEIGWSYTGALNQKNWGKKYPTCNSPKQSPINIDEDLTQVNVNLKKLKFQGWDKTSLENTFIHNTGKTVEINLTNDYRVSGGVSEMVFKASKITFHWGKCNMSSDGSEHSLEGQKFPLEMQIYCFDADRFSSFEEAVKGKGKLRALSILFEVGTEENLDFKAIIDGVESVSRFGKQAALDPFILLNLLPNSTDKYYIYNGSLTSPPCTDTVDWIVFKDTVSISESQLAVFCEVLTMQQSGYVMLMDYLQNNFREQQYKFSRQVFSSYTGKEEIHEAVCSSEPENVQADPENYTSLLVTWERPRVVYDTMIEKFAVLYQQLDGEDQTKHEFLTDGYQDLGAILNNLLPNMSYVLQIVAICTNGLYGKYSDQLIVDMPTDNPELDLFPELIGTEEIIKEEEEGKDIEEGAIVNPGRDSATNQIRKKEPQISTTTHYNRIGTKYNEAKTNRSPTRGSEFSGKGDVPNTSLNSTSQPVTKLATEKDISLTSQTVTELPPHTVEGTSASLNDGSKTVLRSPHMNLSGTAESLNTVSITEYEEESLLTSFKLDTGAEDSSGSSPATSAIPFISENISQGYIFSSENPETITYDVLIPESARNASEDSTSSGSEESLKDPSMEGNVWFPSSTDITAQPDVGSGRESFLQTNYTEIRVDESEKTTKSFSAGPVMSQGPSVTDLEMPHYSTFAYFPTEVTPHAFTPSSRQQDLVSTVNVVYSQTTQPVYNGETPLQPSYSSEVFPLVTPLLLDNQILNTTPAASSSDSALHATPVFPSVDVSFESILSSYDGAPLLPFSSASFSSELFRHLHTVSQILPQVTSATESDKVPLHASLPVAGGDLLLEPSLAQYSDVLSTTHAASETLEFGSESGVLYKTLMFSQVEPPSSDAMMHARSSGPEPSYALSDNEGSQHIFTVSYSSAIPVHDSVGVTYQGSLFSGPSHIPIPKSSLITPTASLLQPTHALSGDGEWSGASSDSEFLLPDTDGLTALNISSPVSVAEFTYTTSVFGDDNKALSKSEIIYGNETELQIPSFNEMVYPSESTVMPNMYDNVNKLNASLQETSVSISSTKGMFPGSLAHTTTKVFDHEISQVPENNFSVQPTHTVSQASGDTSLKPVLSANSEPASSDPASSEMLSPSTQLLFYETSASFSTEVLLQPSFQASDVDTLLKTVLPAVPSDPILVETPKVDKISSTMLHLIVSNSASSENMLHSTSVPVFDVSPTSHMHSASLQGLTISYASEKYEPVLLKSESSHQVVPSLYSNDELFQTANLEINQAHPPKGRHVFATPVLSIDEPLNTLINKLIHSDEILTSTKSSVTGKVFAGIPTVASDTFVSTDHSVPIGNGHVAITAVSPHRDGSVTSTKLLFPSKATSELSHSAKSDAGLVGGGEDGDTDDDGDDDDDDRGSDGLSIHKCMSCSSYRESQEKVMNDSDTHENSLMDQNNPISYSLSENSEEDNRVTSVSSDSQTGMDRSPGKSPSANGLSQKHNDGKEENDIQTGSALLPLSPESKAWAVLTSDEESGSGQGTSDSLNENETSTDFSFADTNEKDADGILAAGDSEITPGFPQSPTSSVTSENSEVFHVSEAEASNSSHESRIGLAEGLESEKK

## Midkine (from UniProt P21741)
[1]
  Kd: 3.5 nM
[2]
  Kd: 8.8 nM
[3]
  Kd: 0.58 nM
